Molecular target: human melanocortin 1 receptor (hMC1-r transfected COS-7 cells) (human) (UniProt Q01726)
Test: Scatchard analysis on MC1-r transfected COS7 cells, culture supernatant with up to 30 nM AP-Ag

Kd: 20 to 30 nM
Substance: AP-Ag, truncated agouti protein containing the cysteine-rich domain tagged with alkaline phosphatase at its N-terminal (from UniProt Q03288) (ligand)
